Assay results as given in publication doi:10.1101/2024.09.17.612794 (bioRxiv, 2024).

T1: full-length Transportin-1 (Trn1), wild type (human, UniProt Q92973 1-898)
T1 sequence (looked up): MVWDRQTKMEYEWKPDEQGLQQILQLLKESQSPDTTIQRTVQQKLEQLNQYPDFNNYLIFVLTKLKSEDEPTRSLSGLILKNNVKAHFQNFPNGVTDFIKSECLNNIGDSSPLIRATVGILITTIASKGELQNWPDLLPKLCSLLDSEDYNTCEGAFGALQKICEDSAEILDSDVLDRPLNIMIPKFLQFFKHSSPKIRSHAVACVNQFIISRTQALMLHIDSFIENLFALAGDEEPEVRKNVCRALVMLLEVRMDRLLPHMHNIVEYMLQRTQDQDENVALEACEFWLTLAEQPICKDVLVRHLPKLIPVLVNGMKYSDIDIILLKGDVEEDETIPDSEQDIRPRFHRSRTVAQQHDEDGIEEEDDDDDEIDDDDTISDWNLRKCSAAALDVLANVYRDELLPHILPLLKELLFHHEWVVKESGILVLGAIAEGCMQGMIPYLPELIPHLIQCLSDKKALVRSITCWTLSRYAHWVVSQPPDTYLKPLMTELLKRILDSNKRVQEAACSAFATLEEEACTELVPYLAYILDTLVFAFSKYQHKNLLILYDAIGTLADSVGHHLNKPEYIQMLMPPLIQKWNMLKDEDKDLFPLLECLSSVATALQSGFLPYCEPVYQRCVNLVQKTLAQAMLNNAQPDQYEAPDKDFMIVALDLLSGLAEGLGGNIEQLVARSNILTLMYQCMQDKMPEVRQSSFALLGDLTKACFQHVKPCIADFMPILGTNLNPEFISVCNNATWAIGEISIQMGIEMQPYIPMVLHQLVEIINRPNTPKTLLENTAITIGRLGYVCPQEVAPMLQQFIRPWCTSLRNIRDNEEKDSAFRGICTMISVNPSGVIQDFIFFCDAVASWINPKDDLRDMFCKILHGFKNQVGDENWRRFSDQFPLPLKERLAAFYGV

T2: Trn1Δloop (HEAT repeat 8 loop replaced with the GGSGGSG linker) (human, UniProt Q92973 1-343; Q92973 376-898)
T2 chain: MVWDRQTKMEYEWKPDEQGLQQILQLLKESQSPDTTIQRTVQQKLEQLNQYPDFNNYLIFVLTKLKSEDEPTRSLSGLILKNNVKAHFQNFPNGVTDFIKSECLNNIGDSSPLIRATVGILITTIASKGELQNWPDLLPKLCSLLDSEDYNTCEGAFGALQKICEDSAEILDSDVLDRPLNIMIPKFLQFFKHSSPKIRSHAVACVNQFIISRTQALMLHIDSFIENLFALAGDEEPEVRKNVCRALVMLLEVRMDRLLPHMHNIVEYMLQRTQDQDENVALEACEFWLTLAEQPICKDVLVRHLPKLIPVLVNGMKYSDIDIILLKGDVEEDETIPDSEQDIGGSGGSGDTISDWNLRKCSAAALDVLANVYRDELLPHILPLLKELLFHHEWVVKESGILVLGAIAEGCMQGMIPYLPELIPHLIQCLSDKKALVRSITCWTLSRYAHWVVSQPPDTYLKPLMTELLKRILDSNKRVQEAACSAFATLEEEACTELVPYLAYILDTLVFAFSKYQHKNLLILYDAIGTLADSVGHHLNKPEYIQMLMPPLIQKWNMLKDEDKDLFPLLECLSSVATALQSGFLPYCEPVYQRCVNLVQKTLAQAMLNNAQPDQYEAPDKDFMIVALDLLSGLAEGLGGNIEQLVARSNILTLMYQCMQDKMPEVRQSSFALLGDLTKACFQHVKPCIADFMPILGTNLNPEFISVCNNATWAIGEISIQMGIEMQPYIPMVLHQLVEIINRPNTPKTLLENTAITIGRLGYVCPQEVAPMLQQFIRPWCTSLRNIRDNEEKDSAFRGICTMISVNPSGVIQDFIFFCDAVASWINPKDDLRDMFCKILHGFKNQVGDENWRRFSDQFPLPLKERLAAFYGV


Key:
[1] = molecular target: T1, full-length Transportin-1 (Trn1), wild …; assay: ITC
[2] = molecular target: T2, Trn1Δloop (HEAT repeat 8 loop replaced …); assay: SEC-MALS
[3] = molecular target: T1, full-length Transportin-1 (Trn1), wild …; assay: SEC-MALS

Binder	Kd [1]	stoichiometry N [2]	stoichiometry N [3]
PPARγ (DHL), residues 102-505, purified (domain or fragment, human, UniProt P37231-1 102-505, looked up) YQSAIKVEPASPPYYSEKTQLYNKPHEEPSNSLMAIECRVCGDKASGFHYGVHACEGCKGFFRRTIRLKLIYDRCDLNCRIHKKSRNKCQYCRFQKCLAVGMSHNAIRFGRMPQAEKEKLLAEISSDIDQLNPESADLRALAKHLYDSYIKSFPLTKAKARAILTGKTTDKSPFVIYDMNSLMMGEDKIKFKHITPLQEQSKEVAIRIFQGCQFRSVEAVQEITEYAKSIPGFVNLDLNDQVTLLKYGVHEIIYTMLASLMNKDGVLISEGQGFMTREFLKSLRKPFGDFMEPKFEFAVKFNALELDDSDLAIFIAVIILSGDRPGLLNVKPIEDIQDNLLQALELQLKLNHPESSQLFAKLLQKMTDLRQIVTEHVQLLQVIKKTETDMSLHPLLQEIYKDLY	200 nM	1 molar ratio	1 molar ratio
PPARγ (DBD), residues 135-209, purified (domain or fragment, human, UniProt P37231-1 135-209, looked up) MAIECRVCGDKASGFHYGVHACEGCKGFFRRTIRLKLIYDRCDLNCRIHKKSRNKCQYCRFQKCLAVGMSHNAIR		1 molar ratio	1 molar ratio
